Here are results for 83 variants from the RNAGym collection of RNA variant scans (doi:10.1021/acssynbio.7b00057).

B1: Pistol ribozyme (parent)
chain: GGGUCGUUGUUCCAUAAUCGCGUGGAUAUGGCACGCAAGUUUCUACCGGGCACCGUAAAUGUCCGACUGGAGCCGUUCGGGCGGCUAUAAACAGACCUCAGGCCCGAAGCGUGGCGGCACCUGCCGCCGGUGGUAAAAAAGAUCGGAAGAGCACACGUCU

The variants in the data set derive from B1. As to the kind of experiment: aptazyme ON/OFF ratio, guanine; higher = stronger switching; co-transcriptional cleavage with and without guanine.
In the case of U7A U8G U10C C12G, the “aptazyme ON/OFF ratio” value came out at 1.12.

Consider U7A U8G U10C C12U, for which the “aptazyme ON/OFF ratio” value was determined as 1.5.

With U7A U8G U10C C12A, the “aptazyme ON/OFF ratio” value was 1.33.

For U7A U8G U10C U11A C12A, the “aptazyme ON/OFF ratio” value was determined as 1.5.

As to U7A U8G U10A U11A C12U C13A, the “aptazyme ON/OFF ratio” value came to 1.72.

Consider U7A U8G U10A U11A C12U C13G, for which the “aptazyme ON/OFF ratio” value amounted to 1.25.

In the case of U7A U8G U10A U11A C12U C13U, the “aptazyme ON/OFF ratio” value was found to be 1.28.

Consider U7A U8G U10A U11C C12U C13U, for which the “aptazyme ON/OFF ratio” value was 1.33.

In the case of U7A U8G U10A U11C C12U C13A, the “aptazyme ON/OFF ratio” value came to 1.14.

As to U7A U8G U10A U11C C12U C13G, the “aptazyme ON/OFF ratio” value worked out at 1.41.

Consider U7A U8G G9U U11A C13A, for which the “aptazyme ON/OFF ratio” value came out at 1.38.

As for U7A U8G G9U U11A C13U, the “aptazyme ON/OFF ratio” value amounted to 1.44.

Consider U7A U8G G9U U11A C13G, for which the “aptazyme ON/OFF ratio” value was 1.25.

In the case of U7A U8G G9U U11A C12U C13G, the “aptazyme ON/OFF ratio” value was 1.26.

Take U7A U8G G9U U11A C12U C13A: the “aptazyme ON/OFF ratio” value was 1.43.

Regarding U7A U8G G9U U11A C12U C13U, the “aptazyme ON/OFF ratio” value came out at 1.07.

With U7A U8G G9U U10G U11C C13A, the “aptazyme ON/OFF ratio” value turned out to be 1.12.

As for U7A U8G G9U U10G U11C C13U, the “aptazyme ON/OFF ratio” value was found to be 1.05.

For U7A U8G G9U U10G U11C C13G, the “aptazyme ON/OFF ratio” value came out at 1.07.

As for U7A U8G G9U U11C C13G, the “aptazyme ON/OFF ratio” value was 1.06.

For U7A U8G G9U U11C C13U, the “aptazyme ON/OFF ratio” value is 1.38.

As to U7A U8G G9U U11C C13A, the “aptazyme ON/OFF ratio” value turned out to be 1.26.

Turning to U7A U8G G9U U11G C13U, the “aptazyme ON/OFF ratio” value was 1.45.

As for U7A U8G G9U U11G C13A, the “aptazyme ON/OFF ratio” value was found to be 1.28.

Regarding U7A U8G G9U U11G C13G, the “aptazyme ON/OFF ratio” value was 1.4.

U7A U8G G9U U10G U11G C12A: the “aptazyme ON/OFF ratio” value was 1.38.

On to U7A U8G G9U U10G U11G C12U, for which the “aptazyme ON/OFF ratio” value is 1.36.

As to U7A U8G G9U U10G U11G C12G, the “aptazyme ON/OFF ratio” value is 1.35.

With U7A U8G U10A U11C C12A C13G, the “aptazyme ON/OFF ratio” value worked out at 1.26.

For the variant U7A U8G U10A U11C C12A C13A, the “aptazyme ON/OFF ratio” value came to 1.26.

U7A U8G U10A U11C C12A C13U: the “aptazyme ON/OFF ratio” value came out at 1.53.

In the case of U7A U8G G9U U10G U11C C12U, the “aptazyme ON/OFF ratio” value worked out at 1.04.

For U7A U8G G9U U10G U11C C12G, the “aptazyme ON/OFF ratio” value came to 1.16.

As to U7A U8G G9U U10G U11C C12A, the “aptazyme ON/OFF ratio” value was determined as 1.19.

As to U7A U8G G9U U11G C12A C13A, the “aptazyme ON/OFF ratio” value worked out at 1.26.

Consider U7A U8G G9U U11G C12A C13U, for which the “aptazyme ON/OFF ratio” value was found to be 1.2.

For U7A U8G G9U U11G C12A C13G, the “aptazyme ON/OFF ratio” value was 1.27.

In the case of U7A U8G G9U U11C C12G C13A, the “aptazyme ON/OFF ratio” value stood at 1.16.

Regarding U7A U8G G9U U11C C12G C13G, the “aptazyme ON/OFF ratio” value was 1.32.

As for U7A U8G G9U U11C C12G C13U, the “aptazyme ON/OFF ratio” value is 1.27.

Consider U7A U8G U10A U11C, for which the “aptazyme ON/OFF ratio” value was found to be 1.11.

Regarding U7A U8G U10A U11G, the “aptazyme ON/OFF ratio” value was 1.95.

In the case of U7A U8G U10A U11A, the “aptazyme ON/OFF ratio” value was 2.54.

With U7A U8G U10A U11A C12U, the “aptazyme ON/OFF ratio” value turned out to be 1.38.

For U7A U8G U10A U11A C12G, the “aptazyme ON/OFF ratio” value came out at 1.13.

In the case of U7A U8G U10A U11A C12A, the “aptazyme ON/OFF ratio” value worked out at 1.47.

With U7A U8G U10A U11G C12U C13A, the “aptazyme ON/OFF ratio” value was found to be 1.15.

U7A U8G U10A U11G C12U C13G: the “aptazyme ON/OFF ratio” value stood at 1.21.

On to U7A U8G U10A U11G C12U C13U, for which the “aptazyme ON/OFF ratio” value was 1.32.

For U7A U8G G9U U10G U11G C12U C13U, the “aptazyme ON/OFF ratio” value came out at 1.21.

For the variant U7A U8G G9U U10G U11G C12U C13G, the “aptazyme ON/OFF ratio” value was 1.3.

As to U7A U8G G9U U10G U11G C12U C13A, the “aptazyme ON/OFF ratio” value is 1.38.

On to U7A U8G G9U U10G U11C, for which the “aptazyme ON/OFF ratio” value came to 1.03.

For the variant U7A U8G G9U U10G U11G, the “aptazyme ON/OFF ratio” value came out at 1.38.

In the case of U7A U8G U10A U11G C13G, the “aptazyme ON/OFF ratio” value was 1.23.

Turning to U7A U8G U10A U11G C13U, the “aptazyme ON/OFF ratio” value came out at 1.29.

Take U7A U8G U10A U11G C13A: the “aptazyme ON/OFF ratio” value was 1.29.

For U7A U8G U10A U11C C12G C13A, the “aptazyme ON/OFF ratio” value stood at 1.56.

U7A U8G U10A U11C C12G C13G: the “aptazyme ON/OFF ratio” value stood at 1.26.

As to U7A U8G U10A U11C C12G C13U, the “aptazyme ON/OFF ratio” value was determined as 1.21.

With U7A U8G U10C, the “aptazyme ON/OFF ratio” value was 1.75.

On to U7A U8G U10A, for which the “aptazyme ON/OFF ratio” value was found to be 2.44.

As for U7A U8G G9U U10G U11G C12A C13A, the “aptazyme ON/OFF ratio” value amounted to 1.12.

Regarding U7A U8G G9U U10G U11G C12A C13G, the “aptazyme ON/OFF ratio” value came out at 1.13.

As for U7A U8G G9U U10G U11G C12A C13U, the “aptazyme ON/OFF ratio” value came to 1.21.

In the case of U7A U8G G9U U11G C12U, the “aptazyme ON/OFF ratio” value worked out at 1.26.

U7A U8G G9U U11G C12G: the “aptazyme ON/OFF ratio” value turned out to be 1.56.

Turning to U7A U8G G9U U11G C12A, the “aptazyme ON/OFF ratio” value came to 1.38.

As to U7A U8G G9U U11C C12U C13U, the “aptazyme ON/OFF ratio” value was 1.07.

With U7A U8G G9U U11C C12U C13A, the “aptazyme ON/OFF ratio” value was found to be 1.17.

With U7A U8G G9U U11C C12U C13G, the “aptazyme ON/OFF ratio” value is 1.15.

As for U7A U8G U10A U11C C13G, the “aptazyme ON/OFF ratio” value is 1.25.

Take U7A U8G U10A U11C C13U: the “aptazyme ON/OFF ratio” value stood at 1.05.

Take U7A U8G U10A U11C C13A: the “aptazyme ON/OFF ratio” value came to 1.18.

Consider U7A U8G U10A U11A C13G, for which the “aptazyme ON/OFF ratio” value came to 1.38.

Regarding U7A U8G U10A U11A C13A, the “aptazyme ON/OFF ratio” value was 1.28.

For the variant U7A U8G U10A U11A C13U, the “aptazyme ON/OFF ratio” value came out at 1.1.

Take U7A U8G U10C U11A C12A C13G: the “aptazyme ON/OFF ratio” value is 1.53.

Regarding U7A U8G U10C U11A C12A C13A, the “aptazyme ON/OFF ratio” value was determined as 1.27.

For the variant U7A U8G U10C C12U C13A, the “aptazyme ON/OFF ratio” value worked out at 1.55.

U7A U8G U10C C12U C13U: the “aptazyme ON/OFF ratio” value was determined as 1.51.

As for U7A U8G U10C C12U C13G, the “aptazyme ON/OFF ratio” value worked out at 1.4.

On to U7A U8G G9U U10G U11C C12U C13A, for which the “aptazyme ON/OFF ratio” value came to 1.1.
